Experimental findings from patent publication US20240018502A1 are described below.

Test [1] deals with human complement protein C3 (human) (UniProt P01024). Description: cell-based or functional assay.
Test [2] addresses plasma purified human complement protein C3 (human) (UniProt P01024). Description: cell-based or functional assay.

Sequence of plasma purified human complement protein C3 (human) (P01024 23-667, chain 1 of 2): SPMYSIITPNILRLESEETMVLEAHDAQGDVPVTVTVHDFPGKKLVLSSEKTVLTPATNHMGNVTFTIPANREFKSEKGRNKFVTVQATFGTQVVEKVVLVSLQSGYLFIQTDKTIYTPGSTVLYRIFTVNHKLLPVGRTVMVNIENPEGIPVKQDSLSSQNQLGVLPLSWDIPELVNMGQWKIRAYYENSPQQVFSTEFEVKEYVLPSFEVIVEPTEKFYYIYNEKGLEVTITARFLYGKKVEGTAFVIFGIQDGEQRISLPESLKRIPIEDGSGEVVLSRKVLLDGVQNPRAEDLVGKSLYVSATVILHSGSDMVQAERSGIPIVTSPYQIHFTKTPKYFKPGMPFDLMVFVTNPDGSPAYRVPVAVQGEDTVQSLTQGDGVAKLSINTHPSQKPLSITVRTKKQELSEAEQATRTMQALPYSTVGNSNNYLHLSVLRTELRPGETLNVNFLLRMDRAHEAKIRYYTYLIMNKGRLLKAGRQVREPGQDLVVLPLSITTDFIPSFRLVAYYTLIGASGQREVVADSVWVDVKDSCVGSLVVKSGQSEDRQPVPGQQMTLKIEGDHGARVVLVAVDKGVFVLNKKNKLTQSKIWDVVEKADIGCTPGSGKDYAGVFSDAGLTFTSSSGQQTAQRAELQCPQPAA
Sequence of plasma purified human complement protein C3 (human) (P01024 672-1663, chain 2 of 2): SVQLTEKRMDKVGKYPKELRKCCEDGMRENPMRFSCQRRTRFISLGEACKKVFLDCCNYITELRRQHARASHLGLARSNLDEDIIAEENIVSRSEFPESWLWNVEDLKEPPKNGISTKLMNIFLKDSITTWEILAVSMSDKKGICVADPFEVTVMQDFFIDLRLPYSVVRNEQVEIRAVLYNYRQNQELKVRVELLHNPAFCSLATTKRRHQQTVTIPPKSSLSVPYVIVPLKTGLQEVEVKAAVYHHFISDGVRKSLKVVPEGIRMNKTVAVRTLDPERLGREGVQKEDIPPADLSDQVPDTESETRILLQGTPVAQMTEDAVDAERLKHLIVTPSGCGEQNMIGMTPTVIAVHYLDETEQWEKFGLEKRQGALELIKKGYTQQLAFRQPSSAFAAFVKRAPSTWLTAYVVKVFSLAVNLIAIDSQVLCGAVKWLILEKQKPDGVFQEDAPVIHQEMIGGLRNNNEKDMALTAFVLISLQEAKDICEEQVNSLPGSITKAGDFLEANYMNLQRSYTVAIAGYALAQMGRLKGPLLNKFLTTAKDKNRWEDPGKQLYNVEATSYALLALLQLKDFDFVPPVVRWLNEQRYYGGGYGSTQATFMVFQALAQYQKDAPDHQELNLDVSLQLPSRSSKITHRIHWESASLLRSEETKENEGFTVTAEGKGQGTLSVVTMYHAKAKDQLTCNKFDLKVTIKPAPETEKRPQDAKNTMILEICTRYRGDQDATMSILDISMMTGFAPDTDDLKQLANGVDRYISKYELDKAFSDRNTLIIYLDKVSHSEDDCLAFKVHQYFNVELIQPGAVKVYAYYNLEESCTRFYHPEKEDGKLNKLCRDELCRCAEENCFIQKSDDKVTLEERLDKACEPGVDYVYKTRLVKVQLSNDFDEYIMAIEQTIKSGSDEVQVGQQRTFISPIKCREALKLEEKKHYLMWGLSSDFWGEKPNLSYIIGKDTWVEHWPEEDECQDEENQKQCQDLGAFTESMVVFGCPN
Sequence of human complement protein C3 (human) (P01024 23-667, chain 1 of 2): as the sequence (P01024 23-667, chain 1 of 2) above
Sequence of human complement protein C3 (human) (P01024 672-1663, chain 2 of 2): as the sequence (P01024 672-1663, chain 2 of 2) above

B1: Q38G/H40R/I41H/D60bN/F97D/F99L/C122S/Q175L/Q192G (enzyme)
chain: VVGGTDADEGEWPWQVSLHALGGGRHCGASLISPNWLVSAAHCYIDNRGFRYSDPTQWTAFLGLHDQSQRSAPGVQERRLKRIISHPFFNDDTLDYDIALLELEKPAEYSSMVRPISLPDASHVFPAGKAIWVTGWGHTQYGGTGALILQKGEIRVINQTTCENLLPQLITPRMMCVGFLSGGVDSCGGDSGGPLSSVEADGRIFQAGVVSWGDGCAQRNKPGVYTRLPLFRDWIKENTGV
In test [1], B1 registered an EC50 (nM), cleavage of purified hC3 in vitro of 0.867 nM.

B2: MTSP-1 H40K/I41M/Y60gF/F97D/F99L/C122S/G151N/Q175L/Q192D (enzyme)
chain: VVGGTDADEGEWPWQVSLHALGQGKMCGASLISPNWLVSAAHCYIDDRGFRFSDPTQWTAFLGLHDQSQRSAPGVQERRLKRIISHPFFNDDTLDYDIALLELEKPAEYSSMVRPISLPDASHVFPAGKAIWVTGWGHTQYGGTNALILQKGEIRVINQTTCENLLPQLITPRMMCVGFLSGGVDSCDGDSGGPLSSVEADGRIFQAGVVSWGDGCAQRNKPGVYTRLPLFRDWIKENTGV
In test [2], B2 had an EC50 of hC3 cleavage of 589 nM.

B3: MTSP-1 H40R/I41H/F97D/C122S/G151N/Q175M/Q192A/D217S/K224R (enzyme)
chain: VVGGTDADEGEWPWQVSLHALGQGRHCGASLISPNWLVSAAHCYIDDRGFRYSDPTQWTAFLGLHDQSQRSAPGVQERRLKRIISHPFFNDDTFDYDIALLELEKPAEYSSMVRPISLPDASHVFPAGKAIWVTGWGHTQYGGTNALILQKGEIRVINQTTCENLLPQMITPRMMCVGFLSGGVDSCAGDSGGPLSSVEADGRIFQAGVVSWGSGCAQRNRPGVYTRLPLFRDWIKENTGV
Consider B3, for which, in test [2], the EC50 of hC3 cleavage is 470 nM.

B4: MTSP-1 H40R/I41H/Y60gH/F97D/F99L/C122S/Q175M/Q192G/D217I/K224R (enzyme)
chain: VVGGTDADEGEWPWQVSLHALGQGRHCGASLISPNWLVSAAHCYIDDRGFRHSDPTQWTAFLGLHDQSQRSAPGVQERRLKRIISHPFFNDDTLDYDIALLELEKPAEYSSMVRPISLPDASHVFPAGKAIWVTGWGHTQYGGTGALILQKGEIRVINQTTCENLLPQMITPRMMCVGFLSGGVDSCGGDSGGPLSSVEADGRIFQAGVVSWGIGCAQRNRPGVYTRLPLFRDWIKENTGV
For the molecule B4, the EC50 of hC3 cleavage in test [2] was 7.94 nM.

B5: MTSP-1 H40R/I41H/F97D/F99L/C122S/G151D/Q175M/Q192G/D217V (enzyme)
chain: VVGGTDADEGEWPWQVSLHALGQGRHCGASLISPNWLVSAAHCYIDDRGFRYSDPTQWTAFLGLHDQSQRSAPGVQERRLKRIISHPFFNDDTLDYDIALLELEKPAEYSSMVRPISLPDASHVFPAGKAIWVTGWGHTQYGGTDALILQKGEIRVINQTTCENLLPQMITPRMMCVGFLSGGVDSCGGDSGGPLSSVEADGRIFQAGVVSWGVGCAQRNKPGVYTRLPLFRDWIKENTGV
Consider B5, for which, in test [2], the EC50 of hC3 cleavage stood at 70.8 nM.

B6: MTSP-1 H40K/I41M/Y60gG/F97D/F99L/C122S/G151N/Q175R/Q192R/D217V/K224S (enzyme)
chain: VVGGTDADEGEWPWQVSLHALGQGKMCGASLISPNWLVSAAHCYIDDRGFRGSDPTQWTAFLGLHDQSQRSAPGVQERRLKRIISHPFFNDDTLDYDIALLELEKPAEYSSMVRPISLPDASHVFPAGKAIWVTGWGHTQYGGTNALILQKGEIRVINQTTCENLLPQRITPRMMCVGFLSGGVDSCRGDSGGPLSSVEADGRIFQAGVVSWGVGCAQRNSPGVYTRLPLFRDWIKENTGV
For the molecule B6, in test [2], the EC50 of hC3 cleavage was found to be 509 nM.

B7: MTSP-1 H40R/I41H/Y60gL/F97D/F99L/C122S/G151N (enzyme)
chain: VVGGTDADEGEWPWQVSLHALGQGRHCGASLISPNWLVSAAHCYIDDRGFRLSDPTQWTAFLGLHDQSQRSAPGVQERRLKRIISHPFFNDDTLDYDIALLELEKPAEYSSMVRPISLPDASHVFPAGKAIWVTGWGHTQYGGTNALILQKGEIRVINQTTCENLLPQQITPRMMCVGFLSGGVDSCQGDSGGPLSSVEADGRIFQAGVVSWGDGCAQRNKPGVYTRLPLFRDWIKENTGV
B7: the EC50 of hC3 cleavage in test [2] amounted to 54.9 nM.

B8: Q38Y/I41S/D60bT/F60eR/Y60gW/D96M/F97N/T98G/F99L/C122S/G151N/Q175L (enzyme)
chain: VVGGTDADEGEWPWQVSLHALGYGHSCGASLISPNWLVSAAHCYIDTRGRRWSDPTQWTAFLGLHDQSQRSAPGVQERRLKRIISHPFFNMNGLDYDIALLELEKPAEYSSMVRPISLPDASHVFPAGKAIWVTGWGHTQYGGTNALILQKGEIRVINQTTCENLLPQLITPRMMCVGFLSGGVDSCQGDSGGPLSSVEADGRIFQAGVVSWGDGCAQRNKPGVYTRLPLFRDWIKENTGV
For the molecule B8, the EC50 (nM), cleavage of purified hC3 in vitro in test [1] stood at 1.08 nM.

B9: Q38H/I41A/D60bV/F60eR/Y60gW/D96P/ins97aN/F97W/T98G/F99L/C122S/G151H/Q175L/Q192E (enzyme)
chain: VVGGTDADEGEWPWQVSLHALGHGHACGASLISPNWLVSAAHCYIDVRGRRWSDPTQWTAFLGLHDQSQRSAPGVQERRLKRIISHPFFNPWNGLDYDIALLELEKPAEYSSMVRPISLPDASHVFPAGKAIWVTGWGHTQYGGTHALILQKGEIRVINQTTCENLLPQLITPRMMCVGFLSGGVDSCEGDSGGPLSSVEADGRIFQAGVVSWGDGCAQRNKPGVYTRLPLFRDWIKENTGV
The molecule B9 gave an EC50 (nM), cleavage of purified hC3 in vitro in test [1] of 1.11 nM.

B10: Q38H/I41S/D60bT/F60eS/Y60gW/D96F/F97D/ins97aE/T98S/F99L/C122S/G151H/Q175L/Q192A (enzyme)
chain: VVGGTDADEGEWPWQVSLHALGHGHSCGASLISPNWLVSAAHCYIDTRGSRWSDPTQWTAFLGLHDQSQRSAPGVQERRLKRIISHPFFNFDESLDYDIALLELEKPAEYSSMVRPISLPDASHVFPAGKAIWVTGWGHTQYGGTHALILQKGEIRVINQTTCENLLPQLITPRMMCVGFLSGGVDSCAGDSGGPLSSVEADGRIFQAGVVSWGDGCAQRNKPGVYTRLPLFRDWIKENTGV
In test [1], B10 came in with an EC50 (nM), cleavage of purified hC3 in vitro of 1.17 nM.

B11: Q38F/I41A/D60bT/F60eG/Y60gW/ins97aE/F97T/T98G/F99L/C122S/Q175L/Q192E (enzyme)
chain: VVGGTDADEGEWPWQVSLHALGFGHACGASLISPNWLVSAAHCYIDTRGGRWSDPTQWTAFLGLHDQSQRSAPGVQERRLKRIISHPFFNDTEGLDYDIALLELEKPAEYSSMVRPISLPDASHVFPAGKAIWVTGWGHTQYGGTGALILQKGEIRVINQTTCENLLPQLITPRMMCVGFLSGGVDSCEGDSGGPLSSVEADGRIFQAGVVSWGDGCAQRNKPGVYTRLPLFRDWIKENTGV
B11 yielded an EC50 (nM), cleavage of purified hC3 in vitro in test [1] of 1.25 nM.

B12: Q38H/I41A/D60bV/F60eT/Y60gW/ins97aE/F97T/T98G/F99L/C122S/Q175L/Q192E (enzyme)
chain: VVGGTDADEGEWPWQVSLHALGHGHACGASLISPNWLVSAAHCYIDVRGTRWSDPTQWTAFLGLHDQSQRSAPGVQERRLKRIISHPFFNDTEGLDYDIALLELEKPAEYSSMVRPISLPDASHVFPAGKAIWVTGWGHTQYGGTGALILQKGEIRVINQTTCENLLPQLITPRMMCVGFLSGGVDSCEGDSGGPLSSVEADGRIFQAGVVSWGDGCAQRNKPGVYTRLPLFRDWIKENTGV
In test [1], B12 returned an EC50 (nM), cleavage of purified hC3 in vitro of 1.39 nM.

B13: Q38H/I41S/D60bT/F60eS/Y60gW/ins97aV/F97D/T98P/F99L/C122S/G151H/Q175L (enzyme)
chain: VVGGTDADEGEWPWQVSLHALGHGHSCGASLISPNWLVSAAHCYIDTRGSRWSDPTQWTAFLGLHDQSQRSAPGVQERRLKRIISHPFFNDDVPLDYDIALLELEKPAEYSSMVRPISLPDASHVFPAGKAIWVTGWGHTQYGGTHALILQKGEIRVINQTTCENLLPQLITPRMMCVGFLSGGVDSCQGDSGGPLSSVEADGRIFQAGVVSWGDGCAQRNKPGVYTRLPLFRDWIKENTGV
In turn, B13 registered an EC50 (nM), cleavage of purified hC3 in vitro in test [1] of 1.31 nM.

B14: ins97aA/F97G/T98L/C122S/Q175M/Q192A/D217I/K224R (enzyme)
chain: VVGGTDADEGEWPWQVSLHALGQGHICGASLISPNWLVSAAHCYIDDRGFRYSDPTQWTAFLGLHDQSQRSAPGVQERRLKRIISHPFFNDGALFDYDIALLELEKPAEYSSMVRPISLPDASHVFPAGKAIWVTGWGHTQYGGTGALILQKGEIRVINQTTCENLLPQMITPRMMCVGFLSGGVDSCAGDSGGPLSSVEADGRIFQAGVVSWGIGCAQRNRPGVYTRLPLFRDWIKENTGV
For the molecule B14, the EC50 (nM), cleavage of purified hC3 in vitro in test [1] is 0.866 nM.
